From US20240270857A1 (CHIA TAI TIANQING PHARMACEUTICAL GROUP, published 2024)

How the values were obtained:
[1] = target: T1, Human IL-1Rrp2/IL-1R6 protein, His Tag (ACROBiosystems, IL2-H52H6) (human, UniProt Q9HB29 20-335); experiment: BLI (ForteBio Octet), antibody on ProA sensor, 1:1 model
T1 construct: Bought protein; the soluble protein is likely only the extracellular part; also called hIL-36R; human IL36R antigen; not shown: His tag
T1 sequence: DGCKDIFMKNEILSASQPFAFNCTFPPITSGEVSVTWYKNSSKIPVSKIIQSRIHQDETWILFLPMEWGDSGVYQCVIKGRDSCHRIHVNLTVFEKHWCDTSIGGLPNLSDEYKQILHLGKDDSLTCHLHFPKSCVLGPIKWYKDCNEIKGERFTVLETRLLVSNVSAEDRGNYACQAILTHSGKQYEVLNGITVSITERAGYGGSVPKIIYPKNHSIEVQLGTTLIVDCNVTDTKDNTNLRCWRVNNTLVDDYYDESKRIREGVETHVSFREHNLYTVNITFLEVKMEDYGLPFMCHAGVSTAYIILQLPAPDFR
Procedure: The affinity of anti-IL-36R antibodies to CynoIL36R-ECD mFc and human IL-1Rrp2/IL-IR6 protein, His Tag (ACROBiosystems, IL2-H52H6) was measured by a ForteBio molecular interaction instrument. […] And then the biosensor was used to bind CynoIL36R-ECD mFc or human IL-1Rrp2/IL-1R6 protein, His Tag which was diluted by a gradient (the initial concentration was 200 nM, 2-fold gradient dilution), the response signals were detected in real time using a Fortebio molecular interaction instrument (SARTORIUS, octet red 96e), and association and dissociation curves were obtained. After the completion of dissociation in each cycle, the biosensor was regenerated for the next capture; the procedure was repeated until the affinity of the different anti-IL-36R antibodies for IL-36R was determined. The resulting data were analyzed by Fortebio Data Analysis 11.0 software in a 1:1 (Langmuir) binding model to determine kₐ (kₒₙ) and kd (koff) values, and the dissociation constant KD was calculated by KD=kd/kₐ. The detection method essentially followed the manufacturer's recommendations, and more information could be found at www.fortebio.com.

[2] = target: T2, human IL-36R overexpressed on 293T-hIL36R-NFκB cells (human, UniProt Q9HB29 20-575); experiment: cell-based or functional assay
T2 sequence: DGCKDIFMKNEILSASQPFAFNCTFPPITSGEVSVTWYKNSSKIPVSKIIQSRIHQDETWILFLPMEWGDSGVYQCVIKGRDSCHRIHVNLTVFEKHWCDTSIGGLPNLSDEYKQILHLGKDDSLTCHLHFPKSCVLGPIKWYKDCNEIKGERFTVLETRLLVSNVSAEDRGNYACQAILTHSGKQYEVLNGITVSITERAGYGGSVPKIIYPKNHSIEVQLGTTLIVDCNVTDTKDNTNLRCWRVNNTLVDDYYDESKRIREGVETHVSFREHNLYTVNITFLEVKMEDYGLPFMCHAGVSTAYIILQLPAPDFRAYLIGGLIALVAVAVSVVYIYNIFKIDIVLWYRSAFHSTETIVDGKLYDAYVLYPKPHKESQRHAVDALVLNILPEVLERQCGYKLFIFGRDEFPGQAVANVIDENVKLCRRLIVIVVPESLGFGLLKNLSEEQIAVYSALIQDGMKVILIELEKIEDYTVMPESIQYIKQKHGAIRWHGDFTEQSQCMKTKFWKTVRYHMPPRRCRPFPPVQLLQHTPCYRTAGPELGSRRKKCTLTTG

[3] = target: T3, IL-36R naturally expressed on OVCAR8 cells and on normal human epidermal keratinocytes (NHK cells) (human, UniProt Q9HB29 20-575); experiment: cell-based or functional assay
T3 sequence (looked up): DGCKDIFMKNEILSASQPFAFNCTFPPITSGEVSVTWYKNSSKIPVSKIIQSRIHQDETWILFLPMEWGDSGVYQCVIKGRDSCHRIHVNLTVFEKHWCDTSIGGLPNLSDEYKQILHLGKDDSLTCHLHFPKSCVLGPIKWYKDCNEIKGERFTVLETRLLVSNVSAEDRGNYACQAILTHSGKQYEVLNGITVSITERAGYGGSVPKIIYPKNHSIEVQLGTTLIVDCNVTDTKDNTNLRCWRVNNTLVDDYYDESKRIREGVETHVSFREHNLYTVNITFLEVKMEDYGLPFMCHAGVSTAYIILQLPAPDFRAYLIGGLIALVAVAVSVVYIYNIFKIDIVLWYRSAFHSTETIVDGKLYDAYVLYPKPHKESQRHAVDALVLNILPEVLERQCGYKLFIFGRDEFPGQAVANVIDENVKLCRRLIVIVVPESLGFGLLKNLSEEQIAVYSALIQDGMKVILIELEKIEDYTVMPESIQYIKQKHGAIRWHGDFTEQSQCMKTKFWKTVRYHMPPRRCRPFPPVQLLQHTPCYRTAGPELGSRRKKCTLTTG

[4] = target: T2, human IL-36R overexpressed on …; experiment: cell-based or functional assay; remark: listed apart in the source
[5] = target: T2, human IL-36R overexpressed on …; experiment: cell-based or functional assay; remark: listed apart in the source
[6] = target: T3, IL-36R naturally expressed on OVCAR8 …; experiment: cell-based or functional assay; remark: listed apart in the source
[7] = target: T3, IL-36R naturally expressed on OVCAR8 …; experiment: cell-based or functional assay; remark: listed apart in the source
[8] = target: T2, human IL-36R overexpressed on …; experiment: FACS on 293T-hIL36R-NFκB cells, ratio of MFI to background MFI
Procedure: After the cells was washed with PBS, the cells were resuspended with 100 μL of PBS and then the fluorescence signal was detected using a flow cytometer (BD, Accuri C6). […] The ratio was the ratio of mean fluorescence intensity (MFI) of the experimental group/the background MFI, and the resulting data were analyzed using GraphPad Prism.

- Kd [1]: 4.72 nM
- koff [1]: 0.000332 s⁻¹
- kon [1]: 70400 M⁻¹ s⁻¹
- IC50; NFκB-luciferase reporter in 293T-hIL36R-NFκB cells stimulated with hIL36β, inhibition rate % [2]: 21.5 nM
- IC50; IL-8 production of OVCAR8 cells stimulated with hIL36β, inhibition rate % [3]: 0.972 nM
- IC50; NFκB-luciferase reporter in 293T-hIL36R-NFκB cells stimulated with hIL36α, inhibition rate % [4]: 12.9 nM
- IC50; NFκB-luciferase reporter in 293T-hIL36R-NFκB cells stimulated with hIL36γ, inhibition rate % [5]: 25.4 nM
- IC50; IL-8 production of OVCAR8 cells stimulated with hIL36γ, inhibition rate % [6]: 1.05 nM
- IC50; IL-8 production of OVCAR8 cells stimulated with hIL36α, inhibition rate % [7]: 0.73 nM
- EC50 [8]: 15.5 nM
B1: chimeric 74B4D6 antibody (antibody, human IgG4 S228P, kappa, V domains shown)
VH: EVQLQQPGAELGKPGASVKMACKASGYTFTNYWIHWVKQRPGQGLEWIGTIDPSENYTNYNQKFKGKATLTVDTSSSTAYMQLSSLTSEDKAVYFCTGSSFSYWGQGTLVTVSA
VL: QNVLTQSPAIMSVSPGEKVTMTCSASSSVSFIHWFQQKPGTSPKLWIYTTSNLASGVPARFSGSGSGTSYSLTISRMEAEDAATYYCQQRSSYPLTFGAGTKLELKR
notes: Mouse variable regions on human IgG4 / kappa; also called xi74B4D6
